Assay results: publication PMC9732821, “Neurotrophic Activity and Its Modulation by Zinc Ion of a Dimeric Peptide Mimicking the Brain-Derived Neurotrophic Factor N-Terminal Region” (ACS Chemical Neuroscience, 2022)

Tests used:
TrkB = conditions: synaptic cleft; cited from earlier work
Text: BDNF is the predominant NT in the adult brain and is widely distributed in the cortical areas, visual cortex, and hippocampus.[3] Activation of TrkB by BDNF initiates downstream signaling cascades mediated by Ras/ERK, PI3K/Akt, and PLC-γ.[4] After its activation, the BDNF–TrkB complex undergoes endocytosis, recycling, or degradation and crucially takes the axonal transport route to sustain neuron survival and differentiation.[5] Furthermore, BDNF/TrkB signaling regulates dendritic branching, the density of spines, and spine morphological specializations, acting both as the mediator and modulat ... || The modulation of the BDNF–TrkB signaling axis has been recently postulated as a drug target for the treatment of neurological diseases, including nerve injury, neurodegenerative diseases, and neuropsychiatric disorders.[15],[16] Unfortunately, the therapeutic use of BDNF, as that of other NTs, is challenging due to the uncontrolled side effects as well as their low bioavailability.[17] To overcome such limitations, the use of peptide fragments that can mimic specific domains of the NTs has been explored in the last few years.[18] The most investigated BDNF structural elements have been so far ...

[1] = target: TrkB receptor, endogenous in differentiated SH-SY5Y cells (human (endogenous in SH-SY5Y)) (UniProt Q16620)
[2] = target: TrkB receptor, endogenous in differentiated SH-SY5Y cells (human (endogenous in SH-SY5Y)) (UniProt Q16620); assay: immunostaining of cells or tissue; non-permeabilizing immunofluorescence of membrane-bound BDNF on differentiated SH-SY5Y cells; 1 h treatment with BDNF 150 ng/mL, d-bdnf 10 μM, or both

Chain of UniProt Q16620 (Q16620 32-822): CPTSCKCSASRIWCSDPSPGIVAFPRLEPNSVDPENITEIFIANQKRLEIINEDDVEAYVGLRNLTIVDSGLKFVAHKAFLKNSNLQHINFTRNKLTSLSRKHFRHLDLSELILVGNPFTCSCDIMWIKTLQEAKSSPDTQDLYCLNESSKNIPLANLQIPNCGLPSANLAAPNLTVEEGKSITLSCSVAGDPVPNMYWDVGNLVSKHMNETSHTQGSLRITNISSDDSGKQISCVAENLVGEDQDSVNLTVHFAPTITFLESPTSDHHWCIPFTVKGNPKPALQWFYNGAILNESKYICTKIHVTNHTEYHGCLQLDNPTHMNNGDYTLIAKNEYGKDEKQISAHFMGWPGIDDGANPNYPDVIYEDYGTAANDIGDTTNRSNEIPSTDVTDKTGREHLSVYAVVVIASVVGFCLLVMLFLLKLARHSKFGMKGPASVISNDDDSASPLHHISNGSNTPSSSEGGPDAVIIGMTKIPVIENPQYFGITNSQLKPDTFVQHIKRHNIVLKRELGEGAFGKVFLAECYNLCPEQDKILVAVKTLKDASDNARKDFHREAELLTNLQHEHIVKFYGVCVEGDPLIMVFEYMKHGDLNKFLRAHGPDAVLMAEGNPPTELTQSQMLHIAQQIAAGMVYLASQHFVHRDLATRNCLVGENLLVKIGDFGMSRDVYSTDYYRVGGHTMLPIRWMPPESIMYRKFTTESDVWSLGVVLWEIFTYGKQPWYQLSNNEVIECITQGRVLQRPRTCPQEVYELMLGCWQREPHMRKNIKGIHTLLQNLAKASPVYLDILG

| EC50 of ERK phosphorylation, dose-response in differentiated SH-SY5Y cells (referred to the monomer form) [1] | maximal effect (Emax) of ERK phosphorylation, dose-response in differentiated SH-SY5Y cells [1] | increase of the fluorescent signal of membrane-bound BDNF on the cells [2] | Compound | TrkB activation (TrkB) |
| --- | --- | --- | --- | --- |
|  |  |  | [Zn+2] [zinc] | prompt post-synaptic, BDNF-independent TrkB activation |
| 0.69 nM | 237 | 40% | recombinant human mature BDNF (hBDNF) (ligand) |  |
